From publication PMC9378563 come the findings set out here.

Assay [1] concerns the target L21A variant of HIV-1 gp41 Core (Core^L21A) (HIV-1 (HXB2 numbering named)). Briefly: NMR, 15N ZZ exchange.
For assay [2] the target is unchanged. Put plainly: SEC-MALS.
The target is the same in assay [3]. Briefly: NMR, 1H-15N HSQC resonance amplitudes of trimer and monomer.

The term stoichiometry N denotes a count of units in the complex or per binding partner. With “L21A variant of HIV-1 gp41 Core (Core^L21A) (domain or fragment)”, in assay [1], the kex (koff[B]^2 + 3kon[M]^2) was 1.05 s⁻¹. This substance registered a stoichiometry N in assay [2] of 3. Besides, in assay [3], the Kd = [M]^3/([T][B]^2) (6HB trimer + 2 bicelles to 3 lipid-bound monomers) was 2.8 and the population of the lipid-bound (monomeric) state turned out to be 71%.
